In article PMC8695382 (Nature, 2021):

Columns and labels:
Experiment in all cases: cryo-EM structure; yeast replisome–SCF^Dia2 complexes assembled in the absence of DNA (off DNA); 3.9 Å
Details in all cases: both partners purified
Mcm5 = molecular target: T1, Mcm5 (Saccharomyces cerevisiae, UniProt P29496 1-775)
T1 construct: Mcm5, S. cerevisiae; Subunit of m2; source: purified as part of CMG
T1 sequence: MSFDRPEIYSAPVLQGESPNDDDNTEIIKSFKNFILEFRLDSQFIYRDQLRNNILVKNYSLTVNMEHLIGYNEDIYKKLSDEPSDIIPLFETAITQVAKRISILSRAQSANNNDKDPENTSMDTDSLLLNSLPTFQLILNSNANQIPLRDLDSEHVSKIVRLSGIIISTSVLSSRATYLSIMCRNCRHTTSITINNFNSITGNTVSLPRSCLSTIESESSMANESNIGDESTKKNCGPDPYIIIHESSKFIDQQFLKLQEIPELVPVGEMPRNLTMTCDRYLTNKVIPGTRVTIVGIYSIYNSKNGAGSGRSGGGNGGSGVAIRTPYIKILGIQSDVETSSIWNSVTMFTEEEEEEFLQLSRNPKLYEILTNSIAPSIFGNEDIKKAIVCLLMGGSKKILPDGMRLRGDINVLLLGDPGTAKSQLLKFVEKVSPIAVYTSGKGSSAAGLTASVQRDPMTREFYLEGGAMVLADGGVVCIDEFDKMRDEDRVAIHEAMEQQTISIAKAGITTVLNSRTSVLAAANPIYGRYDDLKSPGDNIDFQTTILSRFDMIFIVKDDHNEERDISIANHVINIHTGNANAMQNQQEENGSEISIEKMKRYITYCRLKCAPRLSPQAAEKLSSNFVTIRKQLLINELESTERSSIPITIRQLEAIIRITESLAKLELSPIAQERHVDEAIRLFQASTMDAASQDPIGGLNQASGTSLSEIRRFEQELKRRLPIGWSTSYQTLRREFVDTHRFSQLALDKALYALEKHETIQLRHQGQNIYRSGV

Mcm3 = molecular target: T2, Mcm3 (Saccharomyces cerevisiae, UniProt P24279 1-971)
T2 construct: Mcm3, S. cerevisiae; Subunit of m2; source: purified as part of CMG
T2 sequence (P24279 whole entry): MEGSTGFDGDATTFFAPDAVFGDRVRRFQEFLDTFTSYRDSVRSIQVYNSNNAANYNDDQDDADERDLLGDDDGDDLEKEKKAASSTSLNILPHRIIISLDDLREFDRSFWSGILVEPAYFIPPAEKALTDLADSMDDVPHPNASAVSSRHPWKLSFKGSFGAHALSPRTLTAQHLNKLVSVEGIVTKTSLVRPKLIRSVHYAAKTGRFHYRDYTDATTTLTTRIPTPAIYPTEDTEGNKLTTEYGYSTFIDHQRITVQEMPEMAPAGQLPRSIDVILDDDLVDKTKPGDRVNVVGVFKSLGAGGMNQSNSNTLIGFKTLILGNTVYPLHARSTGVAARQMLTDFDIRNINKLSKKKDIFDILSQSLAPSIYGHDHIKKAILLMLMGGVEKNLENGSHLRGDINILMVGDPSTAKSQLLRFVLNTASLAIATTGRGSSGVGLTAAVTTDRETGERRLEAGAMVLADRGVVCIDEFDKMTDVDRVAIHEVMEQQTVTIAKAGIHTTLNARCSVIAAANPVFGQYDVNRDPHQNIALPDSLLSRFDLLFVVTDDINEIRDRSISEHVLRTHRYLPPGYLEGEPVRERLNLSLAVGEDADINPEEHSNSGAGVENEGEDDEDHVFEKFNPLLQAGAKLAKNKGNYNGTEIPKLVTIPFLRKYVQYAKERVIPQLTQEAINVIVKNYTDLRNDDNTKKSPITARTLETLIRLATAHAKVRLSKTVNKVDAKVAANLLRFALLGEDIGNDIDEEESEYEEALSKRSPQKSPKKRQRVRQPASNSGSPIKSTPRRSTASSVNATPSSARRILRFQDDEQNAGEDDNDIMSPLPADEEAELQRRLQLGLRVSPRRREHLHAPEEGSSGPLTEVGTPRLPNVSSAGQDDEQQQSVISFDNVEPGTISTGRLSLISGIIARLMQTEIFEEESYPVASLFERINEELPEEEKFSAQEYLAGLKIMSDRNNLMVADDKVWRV

Mcm7 = molecular target: T3, Mcm7 (Saccharomyces cerevisiae, UniProt P38132 1-845)
T3 construct: Mcm7, S. cerevisiae; Subunit of m2; source: purified as part of CMG
T3 sequence: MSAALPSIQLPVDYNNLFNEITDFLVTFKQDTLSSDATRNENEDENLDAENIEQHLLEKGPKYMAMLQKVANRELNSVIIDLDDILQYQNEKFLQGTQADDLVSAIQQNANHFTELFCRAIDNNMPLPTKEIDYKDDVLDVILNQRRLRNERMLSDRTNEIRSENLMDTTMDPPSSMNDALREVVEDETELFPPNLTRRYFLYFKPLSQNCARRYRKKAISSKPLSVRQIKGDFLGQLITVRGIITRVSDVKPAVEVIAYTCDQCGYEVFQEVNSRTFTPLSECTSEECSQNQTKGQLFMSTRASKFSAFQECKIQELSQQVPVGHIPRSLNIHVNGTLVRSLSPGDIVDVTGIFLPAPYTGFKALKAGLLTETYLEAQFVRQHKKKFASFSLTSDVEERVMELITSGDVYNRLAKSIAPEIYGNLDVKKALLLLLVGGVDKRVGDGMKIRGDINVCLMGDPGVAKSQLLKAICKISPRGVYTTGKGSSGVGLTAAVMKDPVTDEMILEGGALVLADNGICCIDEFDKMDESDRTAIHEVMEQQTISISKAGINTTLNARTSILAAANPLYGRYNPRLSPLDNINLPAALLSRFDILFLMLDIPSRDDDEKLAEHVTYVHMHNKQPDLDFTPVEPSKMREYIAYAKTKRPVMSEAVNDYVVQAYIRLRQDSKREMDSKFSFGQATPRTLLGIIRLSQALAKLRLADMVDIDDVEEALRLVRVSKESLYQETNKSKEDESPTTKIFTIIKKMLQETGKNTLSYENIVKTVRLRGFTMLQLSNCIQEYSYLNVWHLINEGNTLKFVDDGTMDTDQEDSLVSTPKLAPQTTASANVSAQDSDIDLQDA

- binding result (Mcm5): binds
- binding result (Mcm3): binds
- binding result (Mcm7): binds
B1: Dia2 (natural protein, Saccharomyces cerevisiae)
chain: MSSPGNSGVAIDSTVLKAIELGTRLFKSGEYLQAKRIFTNALRVCDSYSQEQIMRIRNAYQLDTARPDNKRLYHPRYIKILDNICACYEKLNDLKSCLDVSQRLLKLEPGNIKCYIRCTRTLIKLKDWKRAYKTCSRGLQLCNNDSNHLRQQKQFIKNNMVQKQDGKRSYIDPLEETKIAKKKKNNNVLESLPKKKIKGSTKKTDLVGNLPIEILPIIFQRFTTKELVTLSLVCNKWRDKILYHLDCFQEFNLAPINFKNFVKFMDFLQQNFTRTYRKYILSQVKVSSRITSEELRITQLLFSKMPKCINIERLILSMPTLTTTQIFKLMVRGGTDFFTRLLELSLMITYRPDKQHELEILQTCPLLKKIELIFVNSLVPIFDGNNSVGRDGSFNVMARHTNMQISTADNDEQGIVEEKVIYSELEKITLICDKKKIKNFPLCRALLRGQFPLLQKLTITGVTFPMNNQDIMNFQWLLNFPDLKELWIEDNDNCELSKFLQLLKFSNVWKNLEKLTFRENKLYPIVNLDEDQPVTNDDEVPSMLFYKENLQNLEKLDLMGTSISGSALTRLCEQEYLDGRKLRSLNIGNCPNIQFPNNHAHTARMILDVNAVLKRLSKLEEINLSHLSSLNDSTMKSFIINVPFLENLKRLDISHNFEITGISIYEFLKKFQMDHDNEAGGQPLAYLNIDGCSQVSHITVNMIRAQNLVTQVDCVYERDVWRKFGINSYSYS
notes: Dia2, F-box protein, S. cerevisiae; model built for F-box (211–247), LRRs (248–716) and C-terminal tail (717–732); N-terminal TPR domain not visible; Subunit of m1 as it stands in the cryo-EM samples; also called Dia2^LRR (its leucine-rich repeat domain); source: purified as part of SCF^Dia2
